Here are results for one substance from publication PMC3616719.

Common to all, as to experiment: co-sedimentation
Assay [1] addresses P0mutII (P0 with I241Q/L248Q in helix II) (Bombyx mori).
In assay [2] the target is Bombyx mori ribosomal protein P0 (full-length) (Bombyx mori).
Assay [3] deals with P0mutI (P0 with F215Q/V222Q in helix I) (Bombyx mori).

With P1–[32P]P2 heterodimer (complex), the values for the stoichiometry N (copies of P2 per 50S particle) in assay [1], in assay [2] and in assay [3] were 1.14, 2.22 and 1.04, respectively.
